{"source": "patent US20160194407A1", "about": "(AstraZeneca / MedImmune, published 2016)", "key": {"[1]": {"biological_target": "T1, recombinant mature human CD73 (amino acid positions 1-526) with C-terminal 6x-histidine tag (human, UniProt P21589 27-553)", "T1 sequence": "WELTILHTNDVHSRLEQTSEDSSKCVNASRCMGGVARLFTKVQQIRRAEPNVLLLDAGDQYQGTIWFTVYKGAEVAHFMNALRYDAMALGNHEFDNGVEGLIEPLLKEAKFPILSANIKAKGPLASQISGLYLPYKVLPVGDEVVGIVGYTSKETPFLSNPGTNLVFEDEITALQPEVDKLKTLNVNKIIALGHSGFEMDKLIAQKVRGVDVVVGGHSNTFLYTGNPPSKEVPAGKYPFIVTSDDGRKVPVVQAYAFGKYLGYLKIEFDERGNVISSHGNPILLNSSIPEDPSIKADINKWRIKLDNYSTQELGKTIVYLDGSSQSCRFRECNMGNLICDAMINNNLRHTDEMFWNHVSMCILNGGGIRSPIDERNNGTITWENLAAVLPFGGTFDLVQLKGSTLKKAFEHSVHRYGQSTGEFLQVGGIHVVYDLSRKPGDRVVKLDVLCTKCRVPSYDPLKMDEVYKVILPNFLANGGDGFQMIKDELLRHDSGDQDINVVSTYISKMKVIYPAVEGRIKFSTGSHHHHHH", "assay": "cell-based or functional assay"}, "[2]": {"biological_target": "T2, cynomolgus CD73 extracellular domain (ECD) (cynomolgus)", "T2 construct": "extracellular domain; also called Cynomolgus CD73 ECD; cyno CD73 (SPR Proteon)", "assay": "SPR (Proteon), IgG1-TM"}, "murine CD73 on cells": {"biological_target": "T3, murine CD73 on cells (murine, UniProt Q61503 29-551)", "T3 sequence (looked up)": "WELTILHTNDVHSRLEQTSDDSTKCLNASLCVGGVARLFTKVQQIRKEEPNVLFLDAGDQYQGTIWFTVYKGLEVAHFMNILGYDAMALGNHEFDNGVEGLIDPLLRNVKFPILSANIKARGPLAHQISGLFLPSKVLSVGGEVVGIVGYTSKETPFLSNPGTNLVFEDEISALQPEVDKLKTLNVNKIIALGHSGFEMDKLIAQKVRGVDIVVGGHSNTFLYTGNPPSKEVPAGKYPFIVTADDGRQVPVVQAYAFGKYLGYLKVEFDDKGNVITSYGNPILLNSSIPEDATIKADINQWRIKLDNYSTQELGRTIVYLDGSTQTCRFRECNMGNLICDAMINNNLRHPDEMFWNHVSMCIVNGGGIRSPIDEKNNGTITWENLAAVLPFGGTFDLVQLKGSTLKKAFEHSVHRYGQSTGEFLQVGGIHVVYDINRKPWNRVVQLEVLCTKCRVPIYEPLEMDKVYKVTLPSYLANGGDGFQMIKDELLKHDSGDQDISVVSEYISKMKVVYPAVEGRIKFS", "assay": "cell-based or functional assay"}, "[3]": {"biological_target": "T4, CD73 construct with chicken N- and C-terminal domain sequence and knocked-in human V144 and N185", "T4 construct": "K180 is conserved between chicken and human; also called chicken CD73 replaced with V144 and N185; knock-in", "T4 chain": "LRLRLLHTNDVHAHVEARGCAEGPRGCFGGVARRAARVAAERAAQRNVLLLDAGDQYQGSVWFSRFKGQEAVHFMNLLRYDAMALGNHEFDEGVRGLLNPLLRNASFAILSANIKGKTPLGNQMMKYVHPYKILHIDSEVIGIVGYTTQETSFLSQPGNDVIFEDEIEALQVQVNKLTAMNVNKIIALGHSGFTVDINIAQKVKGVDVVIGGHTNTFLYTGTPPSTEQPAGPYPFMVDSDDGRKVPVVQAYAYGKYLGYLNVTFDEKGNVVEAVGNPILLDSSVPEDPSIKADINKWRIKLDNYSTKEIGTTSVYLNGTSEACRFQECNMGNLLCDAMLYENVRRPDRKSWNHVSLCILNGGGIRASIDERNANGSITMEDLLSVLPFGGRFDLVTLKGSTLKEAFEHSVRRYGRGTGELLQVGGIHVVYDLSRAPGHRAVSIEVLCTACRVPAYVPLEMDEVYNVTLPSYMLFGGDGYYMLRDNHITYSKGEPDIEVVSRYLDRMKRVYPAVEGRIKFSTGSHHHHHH", "assay": "SPR ProteOn, MEDI9447 dilutions from 5 nM to 0.3 nM"}}}
{"binder": "MEDI9447 (antibody, V domains shown, also called clone 10.3 antibody; 73combo3) VH: EVQLLESGGGLVQPGGSLRLSCAASGFTFSSYAYSWVRQAPGKGLEWVSAISGSGGRTYYADSVKGRFTISRDNSKNTLYLQMNSLRAEDTAVYYCARLGYGRVDEWGRGTLVTVSS VL: QSVLTQPPSASGTPGQRVTISCSGSLSNIGRNPVNWYQQLPGTAPKLLIYLDNLRLSGVPDRFSGSKSGTSASLAISGLQSEDEADYYCATWDDSHPGWTFGGGTKLTVL", "values": [{"measurement": "inhibition of sCD73 hydrolysis of AMP (CellTiterGlo), dose response", "setting": "[1]", "value": "~1 IgG per sCD73 dimer (molar ratio)"}, {"measurement": "Kd", "setting": "[2]", "value": 7, "unit": "pM"}, {"measurement": "FabZAP internalization, max toxicity, 4T1", "setting": "murine CD73 on cells", "value": 97, "unit": "%"}, {"measurement": "fold of the KD for wild-type CD73", "setting": "[3]", "value": "< 20", "unit": "fold"}]}
